The domain aggregation screens of Martell et al. (2025)

Experiment: soluble fraction after stress (log2 fold change); higher = more stays soluble; pooled small domains, quantitative proteomics
Settings: stress: 75 degC
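Also: 20 min heating vs room temperature control held 20 min.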

Row | Sequence | soluble fraction (log2)
1 | HMKDGMRVYITYHDSEEEPEKPIGDGTTKGWHTNSTASVVWISQKVAESADLGIWGDPIRIKGEA | 0.0608
2 | HMKDIIVDPQGQYNHPGVPTRIPSSDITMKGVGYPVLGIADNGQKQMMQPGQDYKFPGAKYVDEYPQM | 0.185
3 | HMKDIIVLGAIQAGIKKFDKIQKMTQIEPEELNSILEQLENRGFIQVAEKSGLLGKKIEILVTEKGSNEVD | 0.223
4 | HMKDITAVISKKKGRDYYYIIVSYHLSNGKRVQKWIKTEFSVNGNNKRKLEQKRIEILQEWQNKLV | -1.04
5 | HMKDITMPNVYGLTLEMAEQTLKQSELSIFKAMKINSDTVEEGKVIYTDPKANSIVSGDQEITIYVSDGP | 0.411
6 | HMKDKSEKTKKLIFEAAFKIIREEGFSELSANKIAQVASVSKGVIFHHFSQMDDLYLFMLDTL | 0.23
7 | HMKDLTAIKGVGEFFAKKLSQAGYQSITNLTDVNAKRLQADTGIPLPIAARIIKEAQSLIAET | 0.157
8 | HMKDMWNRIRRARLSAGLSQAALAKETGVRRSAVTQWEKEGGTSPSVANLARIAVVTQVHFEWLATGRGPG | -2.76
9 | HMKDNIRSILEDIPNIGPGRRRALLKHFGSIEAIRRASLEDLIKVDGMNRNAALSIMEYFGM | -0.286
10 | HMKDPSLEHIDALAGKPFQAFPGQDHRAHITAHLNFMSTNMVRNNPSIMAAIQKNILEHISLMAQEQIQL | -1.42
11 | HMKEETYHYTVRYVTDGGDILASYEGKATKDSVFFPEVKTFDGYTAVRGEEPMFHLVSDHAVFQIVYQKNG | -1.17
12 | HMKEFEINSQWKPSLEVYDILSVKGGISRNFIEDSIPEFVLYWRGRGDKSNTWDSKFVQHVKRQWNFYSGL | -2.43
13 | HMKEGGREEMSEIVERYGDERALMANITSVQNLMNNMKWTLDQALDALGIKGKERTLITQQLQ | -0.0628
14 | HMKEIATKSELTYFIQRLLDLLEETNFFNPEERKKAMINHIEAIFRRNNLTLQELNMLHGIITSITR | -2.45
15 | HMKEIGGGPASKFIYYLIKTKHPIEQGDLIGITHLPRRTVQSAIEDLKNQGFIIERNSLDDSRRKVYYPVK | -0.943
16 | HMKEIKRLVELSPGRYFIEGATNIRVFGINGSLLLDTKGETVDLSDLAKGVYLLKTDGVTYKVL | -0.506
17 | HMKEIYIDRGKEALEKELRKRKIPFQEFLSKENTNLLFDTLKIPSHDLEELYLEIGNGKHAASTVVNTVY | 0.391
18 | HMKEKQLMTLDDDLYAFLLKHPGIIQKDIYNHFPYDIKGVIADTLYAWDKTGKIKRTKSGNSYIIYT | -0.228
19 | HMKELAADFSRRIINARTSKGWSQADLGQRMAETINVIKSAESGKPPTDAVVKKFETVLGVILM | -1.06
20 | HMKELLDRIFLHETMRRVSQDATITFSKKVYEVPQKFIGRQVTVQYDPEDLSRVYVKDLNFPEPVMVYPVQ | -1.59
21 | HMKELTPEQLQHNWNNLRQFIDVNFSGDRLGGLNKMYDYFEERMMFAPASGKQHYHNAFAGGYVEHVMHV | 0.209
22 | HMKEPGFAPPVRALAAAPITVLAQVAGTNPGEIRARLRAAGYPVASDQQSVQSLVGGDLKAQIGVLNRILA | -0.286
23 | HMKEQIKVPDLSNKTPEEAKKELNTLGLGARKGGEESSDTVEEGLITRQEPAAGEQVDKNTQILFYVSTGK | 0.901
24 | HMKEQLLLGFKVRSLRGIDLGFVKFIEGSAFQSFLKTDLTIIPNVPNYVKKIDNVKKIILVDWESD | -2.8
25 | HMKEQYTELDWDKVQVNDKVMIKDLNQQVTILSLPDKNNALYIQMGMIKTKVKKEKLAVYNPQLA | -2
26 | HMKERVSWDERLERFAKHITENESLPYPSSKEYAWFEENKALYDAGELEPVRAQSFAFLLKIMRRMNL | -1.7

Row | Sequence | soluble fraction (log2)
27 | HMKETIIPELLQNELDKNSELNDKFNTFSPYKQREFIEYIITAKQEKTQISRLQKVILMILEGRGLNN | -1.89
28 | HMKEVELENMIKAKGFKDAAVLVDERSVTVIVESERLAAGDSASIKELVSRGTGVDPQNVVII | -0.31
29 | HMKEYPEVITTSRLNVRTGPGTGYQRLGTLDQNLRVLVLTRQQGWAQIRGMLNGETVIGWVNDYYLQAID | -2.54
30 | HMKFINISIDKSGNLFINKKSIKFQDLKYNVVNLVDESKNLVVLNADENISHGYVISVLDVLRSIDGLKLA | -2.13
31 | HMKFNEKQNEVRIAIMNFIIDNKRPFHMKQDGYDALEGITLSGRHEFQDILDVLHSRDGFSADEEGNINF | -1.09
32 | HMKFPIITAKQDSDGKFYWAQTTDKGKTYTFILDGDGKKFPIGGTMPDVKINENGYWSVNGSSTGVLANDL | 0.368
33 | HMKFSVEEQFKKSFPKNTYETFSETSLKGVYEVYNGKQVYYYLPVNDVLLLGSIVTKDGKNLTQESNSKK | -0.279
34 | HMKGIVFTEFLDLVEERFGLEMVDAIISQSKLESKGVYTSIGTYSFSELLQLLQNLKIQTGISIDNLLLI | -0.961
35 | HMKGKIYFFEEGVDRVGGVERVISTLANEFSKKYKVNVISFYKTRKETFFKYNSDIDITYLSK | 0.152
36 | HMKGLDRATNKALLLKHIIDNGSTGTRFSELRQVLPSLTRGSISSLLIELRSEGKIHSIGVTRNARWYPTE | -1.79
37 | HMKGLKERLLYFIEYKGLPVQMFEKIVGLSNAAVSKMGDNTRRSTIDKISKSFPELDVNWLLTGQGEMLSY | -0.942
38 | HMKGPAFAKIDLTQLPAGLTSFLNTNAAGFKLDYAVAITKDSVIIEYHVGVTIGTAKKEFHLDPNFQLLP | -0.499
39 | HMKGPLKDLGPDPVTGKSILVKDGKFGTYVTDGETNATLRRGDIVELLTLERGMELLAEKRARATQ | 0.0771
40 | HMKGTVKFFNESKGFGFITEEGTNKEHFVHVSGLVDEIRENDEVEFDLQDGRKGLNAVNVRV | 0.363
41 | HMKGVENLSDIDIQKALNNARANLSKNKAKLEQAGDDEKKKASALAMIQKWETTKKAIEEEIEARKKKSLN | -0.491
42 | HMKHAIKEKIRNEYVHGYLNEEGYRVMPTLDELIRKYEVPASSTYRASSKEGWKKQKEAFLEHLRGEIDA | -0.492
43 | HMKHFFIIAGGKIEDAFAIEVLKGFAEKTVIAADSGMEFLRRNEIVPQVIIGDFDSVSKETLEWFQKK | -0.751
44 | HMKHKGILTTWNDDRGFGFITPKEGKEPVFVHISAFARGQGRPVLNASLTYRLVRDDQQRPRAEAVRL | -1.33
45 | HMKHKHHIIPKHKGGTDHPDNLIELTVEQHAKAHWVEFMLDGREEDYWAWKGLEGVASKKDIIYALSKR | -0.0688
46 | HMKHSEAIELGKRMLSQALQDVSLVLKKIPEERLQAVAAELNLKTPDELFEKIGLGERLAALVARRLLP | -0.851
47 | HMKHTQTDEGELLSTLRTLFPNSSSSSLRKMLTQGRILVNQEVVHRAKHALQAGDEIEVLARQ | -0.13
48 | HMKHVDLDNNERYIYGIIGSTKIHVDEVVEKSGMETKHVMAILTNLELKEAIKGIPGGFYLR | -2.02
49 | HMKHVENLSDEKTIQAIQENPYMQYLLGLSKFTEKPVFVPELFVLIRKRLDQDFFNMLTLILAEADG | ≥ 1.04
50 | HMKHYIDFIAEQLKTLTAIPSPSGYTKNATDYLMKLLQDMGYEPKLSRKGNVFVTLGGDGEPLVLAAHVD | 0.112
51 | HMKIDELKAYLFQSVRVKNPHTQEYDTLKIIELNYYQDKIKAKLKNSDDDYITEMIFESIKHLQNFLG | -2.81
52 | HMKIEEIAYSTFISMLDKGEVSKVELKDNLIYIETKADDKTIYTTGRMEDPDLTNRLIEAGVDFTEIE | -0.196

Row | Sequence | soluble fraction (log2)
53 | HMKIELSDNEKIIYDLLSSQHVLLSEIKDKAGLSNKAWDKSTKSLRKLGLIAVEKKDDDIYISKL | -0.0288
54 | HMKIGIYPGTFDPITHGHTDIIRRSLRVFDKVVVAVAPNPSKHPLFTLTERLEMIRIVMKELEHVEVT | 0.159
55 | HMKILVTDDNIRIDKYLTTQTEYSRSTIQKMIESNNILVNNKPTKSNYILRNNDEITIDENFNEE | -0.00567
56 | HMKININEASRYELMTIGGLDAGRADMLMQYRQKREISSADELKGINGFASYDTAKLQKSFEISP | -0.0573
57 | HMKIRKAVIPAAGLGTRVLPASKSIPKEMLPIVDKPVIQYIVEEAVKAGITEILIITGRGKGAIEDHFDRS | -0.391
58 | HMKISIDNPSVLLDKLATLFPDTSKNKLRKMLTEGRIYVNDNIEHRAKRELINGDTVKILDKTTSKE | -0.121
59 | HMKITAPLPGTITEIKVKVGDTVKNGDTVVVLEAMKMQNNIEAESNGTVTAIFVNKGDTVMEGDALMTI | -0.075
60 | HMKITTKNYFKAIAEVGVENLPAALKKSHDLIEERTSKGADWSVYEHDAEVRRVFDLTFEKLFEFIDQ | -1.88
61 | HMKKAITMGDIITVKELSEKIGIQVAEIIKKLMGLGILATINKELDYDTANVIASEFHIELERK | 0.117
62 | HMKKASLSTVEKKLMKQNYSNDTMENRLARVESYMFGTVFSSDDTQTRIDRISSAYNAQKSS | -0.0731
63 | HMKKDLATYAYEHIKQMVIDRELMPGERIQQEVLARELGISRTPLVTALNRLASENLVELEANKGFSVRRF | -0.451
64 | HMKKEETEAEELEEKFTSAQIKQAYGILNDPRYKQGNYSGAVNVINKIAPGLADHPDVKNALKRANEEL | 0.809
65 | HMKKGRIGSIIQYVREHPGVSSSEIITGLGLDISPATIRRDLTLLVAENKLSVEGQNKGTKYFVSPTYDMF | -1.22
66 | HMKKIDVEVVRSQLIAWMADNGKSQAEVSKSMGISASALSMFIKGTYTGDNEQIGRKAAALMDLVHRQSA | -1.41
67 | HMKKILITGNSGYIGSHLSKMLENDYEVHGLDIRQPQHPVAKFYEQDINRPINIEEEYDAVIHLAALV | -0.348
68 | HMKKILLGDVNLDGKVDVNDVTLLQRYIAGETEVITSKDALTATNFNKDGNIDVLDVTDIQTFIANSE | -0.293
69 | HMKKLTNKQIIFFAEKLAHHSDFASKYSKVGESYEEFAIRLEKELNTPQKVEFYSSYLEKVGFK | -2.54
70 | HMKKPKTVLSEEQKEFIINQAQDGVSAYDIARILFPSVNVTNLSKEVIDVAEFIRDTDIKLLADSE | 0.00266
71 | HMKKPRKTSRKSIENAAIFYLQRFSSSIENLRRVLMRRVYRSAQYHNTKPEEDAKIVDSIIYRLIETGVL | -0.322
72 | HMKKSRLHSVLEEIPGIGEKRRKILIKHFGTVEAIKKSSLEELARIKGMNRRAAQNVLEYLK | -0.775
73 | HMKKVIKIEENVSLQKLAALMSLKVTDVLMRLLSMGMSGVNINSTIDADTAKILASEFGWTVED | -0.529
74 | HMKKVKVPNVVGMSLKEARDALSAVNIAVNQVAGSVEDKSVVTEQSLKAGDEVDEGSSLNLTTEYK | 0.878
75 | HMKKYLTETEAAAYLNMPVEEIKAAITKGEIEQYVKTSSGYTISVEELDKFFGQKAYDTMTSNNS | 0.0786
76 | HMKLASIGDNIHTLRKNKGLTQSQLAGKLGVNVDTISNYEKGVSTPDFDIVEKLVNIFNVDAHSLLFK | -0.287
